In patent publication US20260209376A1 (University of California, published 2026):

What was measured:
[1] = target: T1, soluble human TfR1 (sCD71) (human, UniProt P02786 89-760); experiment: ELISA, plate coated with soluble human TfR1 (Kerafast), 2-fold antibody dilutions, AP anti-human kappa detection, A405
T1 construct: extracellular domain; Two sources (Cal Tech, Kerafast) are kept as one molecule; also called Human sCD71; transferrin receptor 1
Method: (§1) Immulon-H2B plates (Thermo Fisher Scientific, Inc.) were coated overnight at 4° C. with soluble 5 μg/mL TfR1 (sCD71) in 50 mM carbonate/bicarbonate buffer, pH 9.3. Human sCD71 was obtained from either Cal Tech (California Institute of Technology, Pasadena, CA, USA) or Kerafast, Inc., while cynomolgus monkey (Macaca fascicularis) sCD71 was purchased from Sino Biological, Inc. (Wayne, PA, USA). Plates were washed with PBS and blocked with 3% BSA in PBS. Serial 2-fold dilutions of antibodies (200-3.12 ng/mL) were added to the plate in duplicates and incubated overnight at 4° C. Binding was detected with an AP-conjugated goat anti-human κ antibody (MilliporeSigma) and AP substrate, p-nitrophenyl phosphate disodium (MilliporeSigma), dissolved in diethanolamine buffer (9.6% diethanolamine (v/v), 0.24 mM MgCl₂ in water, pH 9.8). Plates were read at absorbance 405 nm using a FilterMax F5 multi-mode microplate reader (Molecular Devices, Sunnyvale, CA, USA).

[2] = target: T2, human TfR1 on the cell surface (KMS-11 or MM.1S human MM cells) (human, UniProt P02786 1-760); experiment: flow cytometry on MM.1S cells, 2 ug antibody, PE anti-human kappa detection
T2 construct: whole, on cells; also called human cells expressing the TfR1; CD71
T2 sequence (P02786 whole entry): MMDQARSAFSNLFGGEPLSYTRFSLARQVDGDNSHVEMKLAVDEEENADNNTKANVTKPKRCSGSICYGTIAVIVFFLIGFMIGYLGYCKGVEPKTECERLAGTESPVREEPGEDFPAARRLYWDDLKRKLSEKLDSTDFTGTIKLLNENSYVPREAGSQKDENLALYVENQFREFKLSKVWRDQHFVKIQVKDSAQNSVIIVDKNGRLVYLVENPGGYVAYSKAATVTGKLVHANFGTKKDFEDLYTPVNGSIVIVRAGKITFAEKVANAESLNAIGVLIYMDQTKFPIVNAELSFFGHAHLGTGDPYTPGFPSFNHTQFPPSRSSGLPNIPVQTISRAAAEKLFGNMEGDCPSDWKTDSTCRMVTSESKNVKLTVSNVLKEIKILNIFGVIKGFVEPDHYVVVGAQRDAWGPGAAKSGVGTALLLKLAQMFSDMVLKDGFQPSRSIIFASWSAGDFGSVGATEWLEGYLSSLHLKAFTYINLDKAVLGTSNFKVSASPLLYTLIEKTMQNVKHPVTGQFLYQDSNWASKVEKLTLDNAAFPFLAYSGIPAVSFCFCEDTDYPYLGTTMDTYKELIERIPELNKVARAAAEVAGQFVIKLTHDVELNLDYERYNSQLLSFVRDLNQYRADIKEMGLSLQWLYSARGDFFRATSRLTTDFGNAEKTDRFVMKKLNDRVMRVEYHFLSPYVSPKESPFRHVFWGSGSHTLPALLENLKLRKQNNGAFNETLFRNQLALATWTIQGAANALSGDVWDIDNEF
Method: (§2) KMS-11 cells (Namba et al., In Vitro Cell. Dev. Biol. 25(8):723-729 (1989)), a kind gift from Dr. Lawrence Boise (Emory University, Atlanta, GA, USA), and MM.1S cells (Greenstein et al., Exp. Hematol., 31(4):271-282 (2003)), purchased from the American Type Culture Collection (ATCC, Manassas, VA, USA; ATCC® CRL-2974T”) human MM cells were incubated with 2 μg of humanized antibodies or the control antibodies (ch128.1 as a positive control or a negative isotype control IgG1) for 2 hours on ice. Binding was detected using a PE-conjugated anti-human κ antibody. Samples were analyzed on an LSRII analytical flow cytometer (BD Biosciences, San Jose, CA, USA) and 10,000 events were collected. Histograms were created using the […] Version 3 (De Novo Software, Glendale, CA, USA).

[3] = target: T3, cynomolgus monkey (Macaca fascicularis) soluble TfR1 (sCD71) (cynomolgus monkey (Macaca fascicularis), UniProt H9EXL1 89-760 (rhesus entry)); experiment: ELISA, plate coated with soluble cynomolgus monkey TfR1 (Sino Biological), 2-fold antibody dilutions, AP anti-human kappa detection, A405
T3 construct: extracellular domain; also called cynomolgus monkey TfR1; cynomolgus monkey sCD71
T3 sequence (chain, as listed by the source): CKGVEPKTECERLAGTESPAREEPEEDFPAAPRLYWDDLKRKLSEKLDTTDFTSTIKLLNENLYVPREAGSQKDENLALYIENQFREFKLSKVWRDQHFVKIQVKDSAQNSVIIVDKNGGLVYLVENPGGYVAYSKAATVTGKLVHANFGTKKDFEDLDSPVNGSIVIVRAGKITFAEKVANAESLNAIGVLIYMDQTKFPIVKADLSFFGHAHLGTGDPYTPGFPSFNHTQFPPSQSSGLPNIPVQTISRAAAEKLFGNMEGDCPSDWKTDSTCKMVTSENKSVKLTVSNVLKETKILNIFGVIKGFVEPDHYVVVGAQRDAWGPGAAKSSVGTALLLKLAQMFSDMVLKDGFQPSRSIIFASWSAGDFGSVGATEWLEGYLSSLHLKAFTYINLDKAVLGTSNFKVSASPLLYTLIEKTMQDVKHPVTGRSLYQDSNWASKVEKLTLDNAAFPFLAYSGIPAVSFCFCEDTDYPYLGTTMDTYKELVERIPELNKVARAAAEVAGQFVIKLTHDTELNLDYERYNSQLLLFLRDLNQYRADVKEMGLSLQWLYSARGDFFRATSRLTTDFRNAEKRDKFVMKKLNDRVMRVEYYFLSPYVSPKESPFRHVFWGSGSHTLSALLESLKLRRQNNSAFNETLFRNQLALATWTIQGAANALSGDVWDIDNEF
Method: as §1

[4] = target: T1, soluble human TfR1 (sCD71); experiment: ELISA, soluble human TfR1; semi-quantitative grade
[5] = target: T2, human TfR1 on the cell surface (KMS-11 …); experiment: flow cytometry on KMS-11 cells; semi-quantitative grade
Method: as §2

T1 sequence (P02786 89-760): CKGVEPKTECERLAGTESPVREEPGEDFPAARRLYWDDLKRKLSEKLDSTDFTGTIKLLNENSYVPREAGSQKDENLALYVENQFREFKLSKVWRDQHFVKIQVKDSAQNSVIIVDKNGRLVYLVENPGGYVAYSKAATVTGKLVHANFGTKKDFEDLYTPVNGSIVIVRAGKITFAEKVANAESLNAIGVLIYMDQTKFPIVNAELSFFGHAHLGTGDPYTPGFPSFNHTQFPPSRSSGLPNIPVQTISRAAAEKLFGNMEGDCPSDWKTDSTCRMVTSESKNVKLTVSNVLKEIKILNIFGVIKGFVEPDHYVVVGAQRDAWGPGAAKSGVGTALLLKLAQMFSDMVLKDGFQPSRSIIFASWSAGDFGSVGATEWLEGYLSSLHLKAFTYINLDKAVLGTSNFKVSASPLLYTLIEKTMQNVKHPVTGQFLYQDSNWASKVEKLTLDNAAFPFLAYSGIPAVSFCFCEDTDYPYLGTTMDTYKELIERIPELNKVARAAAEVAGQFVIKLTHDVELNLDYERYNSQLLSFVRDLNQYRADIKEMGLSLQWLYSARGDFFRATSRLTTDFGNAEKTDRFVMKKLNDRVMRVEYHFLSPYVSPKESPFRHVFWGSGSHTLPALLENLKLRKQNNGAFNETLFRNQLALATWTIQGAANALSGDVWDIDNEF

Row | Binder | binding result [1] | binding result [2] | EC50 (read off the curve) [3] [µg/mL] | binding result [4] | binding result [5]
1 | H6L7 (antibody, human IgG1, V domains shown, humanized; also called hu128.1) VH: EVQLVQSGAEVKKPGESLKISCKGSGYSFTGYTMNWVRQMPGKGLEWMGRINPHNGGTDYNQKFKDQVTISADKSISTAYLQWSSLKASDTAMYYCARGYYYYSLDYWGQGTLVTVSS VL: EIVLTQSPATLSLSPGERATLSCSASSSIRYIHWYQQKPGQAPRRWIYDTSNLASGTPARFSGSGSGTSYSLTISSLEPEDFAVYYCHQRNSYPWTFGQGTKVEIK | binds | binds | ~0.03 | – | –
2 | H8L8 (antibody, human IgG1, V domains shown, humanized; also called hu128.1) VH: QVQLVESGGGVVQPGRSLRLSCAASGYSFTGYTMNWVRQAPGNGLEWVARINPHNGGTDYNQKFKDRFTISRDNSKNTLYLQMNSLRAEDTAVYYCARGYYYYSLDYWGQGTTVTVSS VL: EIVLTQSPDFQSVTPKEKVTITCSASSSIRYIHWYQQRPDQSPKRWIYDTSNLASGVPSRFSGSGSGTSYSLTINSLEAEDAATYYCHQRNSYPWTFGQGTKVEIK | – | – | – | binds | binds
3 | ch128.1 (antibody, human IgG1, V domains shown, mouse 128.1 V regions; also called chimeric antibody; parental chimeric antibody) VH: EVQLQQSGPELVKPGASMKISCKASGYSFTGYTMNWVKQSHGENLEWIGRINPHNGGTDYNQKFKDKAPLTVDKSSNTAYMELLSLTSGDSAVYYCARGYYYYSLDYWGQGTSVTVSS VL: QIVLTQSPAIMSVSPGEKVTMTCSASSSIRYIHWYQQRPGTSPKRWIYDTSNLASGVPARFSGSGSGTSYSLTISSMEAEDAATYYCHQRNSYPWTFGGGTRLEIR | – | binds | ~0.03 | – | –
4 | H6L8 (antibody, human IgG1, V domains shown, humanized; also called hu128.1) VH: EVQLVQSGAEVKKPGESLKISCKGSGYSFTGYTMNWVRQMPGKGLEWMGRINPHNGGTDYNQKFKDQVTISADKSISTAYLQWSSLKASDTAMYYCARGYYYYSLDYWGQGTLVTVSS VL: EIVLTQSPDFQSVTPKEKVTITCSASSSIRYIHWYQQRPDQSPKRWIYDTSNLASGVPSRFSGSGSGTSYSLTINSLEAEDAATYYCHQRNSYPWTFGQGTKVEIK | – | – | – | binds | binds
5 | H8L7 (antibody, human IgG1, V domains shown, humanized; also called hu128.1) VH: QVQLVESGGGVVQPGRSLRLSCAASGYSFTGYTMNWVRQAPGNGLEWVARINPHNGGTDYNQKFKDRFTISRDNSKNTLYLQMNSLRAEDTAVYYCARGYYYYSLDYWGQGTTVTVSS VL: EIVLTQSPATLSLSPGERATLSCSASSSIRYIHWYQQKPGQAPRRWIYDTSNLASGTPARFSGSGSGTSYSLTISSLEPEDFAVYYCHQRNSYPWTFGQGTKVEIK | – | – | – | binds | binds
6 | H8L5 (antibody, human IgG1, V domains shown, humanized; also called hu128.1) VH: QVQLVESGGGVVQPGRSLRLSCAASGYSFTGYTMNWVRQAPGNGLEWVARINPHNGGTDYNQKFKDRFTISRDNSKNTLYLQMNSLRAEDTAVYYCARGYYYYSLDYWGQGTTVTVSS VL: EIVLTQSPATLSLSPGERATLSCSASSSIRYIHWYQQKPGQAPRRWIYDTSNLASGTPARFSGSGSGTSYSLTISSLEPEDFAVYYCQQRNSYPWTFGQGTKVEIK | – | – | – | binds | binds

More lines, now with the values ahead:

Row | binding result [1] | binding result [2] | EC50 (read off the curve) [3] [µg/mL] | binding result [4] | binding result [5] | Binder
7 | – | – | – | binds | binds | H6L5 (antibody, human IgG1, V domains shown, humanized; also called hu128.1) VH: EVQLVQSGAEVKKPGESLKISCKGSGYSFTGYTMNWVRQMPGKGLEWMGRINPHNGGTDYNQKFKDQVTISADKSISTAYLQWSSLKASDTAMYYCARGYYYYSLDYWGQGTLVTVSS VL: EIVLTQSPATLSLSPGERATLSCSASSSIRYIHWYQQKPGQAPRRWIYDTSNLASGTPARFSGSGSGTSYSLTISSLEPEDFAVYYCQQRNSYPWTFGQGTKVEIK
8 | binds | binds | ~0.03 | – | – | H6L9 (antibody, human IgG1, V domains shown, humanized; also called hu128.1) VH: EVQLVQSGAEVKKPGESLKISCKGSGYSFTGYTMNWVRQMPGKGLEWMGRINPHNGGTDYNQKFKDQVTISADKSISTAYLQWSSLKASDTAMYYCARGYYYYSLDYWGQGTLVTVSS VL: EIVLTQSPATLSLSPGERATLSCSASSSIRYIHWYQQKPGQAPRRWIYDTSNLASGTPARFSGSGSGTDFTLTISSLEPEDFAVYYCHQRNSYPWTFGQGTKVEIK
9 | – | – | – | binds | binds | H6L11 (antibody, human IgG1, V domains shown, humanized; also called hu128.1) VH: EVQLVQSGAEVKKPGESLKISCKGSGYSFTGYTMNWVRQMPGKGLEWMGRINPHNGGTDYNQKFKDQVTISADKSISTAYLQWSSLKASDTAMYYCARGYYYYSLDYWGQGTLVTVSS VL: EIVLTQSPATLSLSPGERATLSCSASSSIRYIHWYQQKPGQAPRLLIYDTSNLASGTPARFSGSGSGTSYSLTISSLEPEDFAVYYCHQRNSYPWTFGQGTKVEIK
10 | binds | binds | ~0.04 | – | – | H8L9 (antibody, human IgG1, V domains shown, humanized; also called hu128.1) VH: QVQLVESGGGVVQPGRSLRLSCAASGYSFTGYTMNWVRQAPGNGLEWVARINPHNGGTDYNQKFKDRFTISRDNSKNTLYLQMNSLRAEDTAVYYCARGYYYYSLDYWGQGTTVTVSS VL: EIVLTQSPATLSLSPGERATLSCSASSSIRYIHWYQQKPGQAPRRWIYDTSNLASGTPARFSGSGSGTDFTLTISSLEPEDFAVYYCHQRNSYPWTFGQGTKVEIK
11 | – | – | – | binds | binds | H8L6 (antibody, human IgG1, V domains shown, humanized; also called hu128.1) VH: QVQLVESGGGVVQPGRSLRLSCAASGYSFTGYTMNWVRQAPGNGLEWVARINPHNGGTDYNQKFKDRFTISRDNSKNTLYLQMNSLRAEDTAVYYCARGYYYYSLDYWGQGTTVTVSS VL: EIVLTQSPDFQSVTPKEKVTITCSASSSIRYIHWYQQRPDQSPKRWIYDTSNLASGVPSRFSGSGSGTSYSLTINSLEAEDAATYYCQQRNSYPWTFGQGTKVEIK
12 | binds | binds | ~0.04 | – | – | H8L10 (antibody, human IgG1, V domains shown, humanized; also called hu128.1) VH: QVQLVESGGGVVQPGRSLRLSCAASGYSFTGYTMNWVRQAPGNGLEWVARINPHNGGTDYNQKFKDRFTISRDNSKNTLYLQMNSLRAEDTAVYYCARGYYYYSLDYWGQGTTVTVSS VL: EIVLTQSPDFQSVTPKEKVTITCSASSSIRYIHWYQQRPDQSPKRWIYDTSNLASGVPSRFSGSGSGTDFTLTINSLEAEDAATYYCHQRNSYPWTFGQGTKVEIK
13 | – | – | – | binds | binds | H6L6 (antibody, human IgG1, V domains shown, humanized; also called hu128.1) VH: EVQLVQSGAEVKKPGESLKISCKGSGYSFTGYTMNWVRQMPGKGLEWMGRINPHNGGTDYNQKFKDQVTISADKSISTAYLQWSSLKASDTAMYYCARGYYYYSLDYWGQGTLVTVSS VL: EIVLTQSPDFQSVTPKEKVTITCSASSSIRYIHWYQQRPDQSPKRWIYDTSNLASGVPSRFSGSGSGTSYSLTINSLEAEDAATYYCQQRNSYPWTFGQGTKVEIK
14 | – | – | – | binds | binds | H6L10 (antibody, human IgG1, V domains shown, humanized; also called hu128.1) VH: EVQLVQSGAEVKKPGESLKISCKGSGYSFTGYTMNWVRQMPGKGLEWMGRINPHNGGTDYNQKFKDQVTISADKSISTAYLQWSSLKASDTAMYYCARGYYYYSLDYWGQGTLVTVSS VL: EIVLTQSPDFQSVTPKEKVTITCSASSSIRYIHWYQQRPDQSPKRWIYDTSNLASGVPSRFSGSGSGTDFTLTINSLEAEDAATYYCHQRNSYPWTFGQGTKVEIK
15 | – | – | – | binds | binds | H6L12 (antibody, human IgG1, V domains shown, humanized; also called hu128.1) VH: EVQLVQSGAEVKKPGESLKISCKGSGYSFTGYTMNWVRQMPGKGLEWMGRINPHNGGTDYNQKFKDQVTISADKSISTAYLQWSSLKASDTAMYYCARGYYYYSLDYWGQGTLVTVSS VL: EIVLTQSPDFQSVTPKEKVTITCSASSSIRYIHWYQQRPDQSPKLLIYDTSNLASGVPSRFSGSGSGTSYSLTINSLEAEDAATYYCHQRNSYPWTFGQGTKVEIK
